Reference: patent publication US20200199241A1 (Chugai, published 2020)
Changes are numbered by the printed parent chain.

B1: IgG1-F1301 (antibody)
heavy: QVQLQESGPGLVKPSETLSLTCAVSGHSISHDHAWSWVRQPPGEGLEWIGFISYSGITNYNPSLQGRVTISRDNSKNTLYLQMNSLRAEDTAVYYCARSLARTTAMDYWGEGTLVTVSSASTKGPSVFPLAPSSKSTSGGTAALGCLVKDYFPEPVTVSWNSGALTSGVHTFPAVLQSSGLYSLSSVVTVPSSSLGTQTYICNVNHKPSNTKVDKKVEPKSCDKTHTCPPCPAPELRGGPKVFLFPPKPKDTLYISREPEVTCVVVDVSHEDPEVKFNWYVDGVEVHNAKTKPREEQYNSTYRVVSVLTVLHQDWLNGKEYKCKVSNKALPAPIEKTISKAKGQPREPQVYTLPPSRDELTKNQVSLTCLVKGFYPSDIAVEWESNGQPENNYKTTPPVLDSDGSFFLYSKLTVDKSRWQQGNVFSCSVMHEALHYHFTKKDLSLSP
light: not shown
notes: EU numbering; copies: 2 + 2
B2: IgG1-F1362 (antibody)
heavy: B1 heavy with S256T, E258T, H435D, D442E
light: not shown
notes: EU numbering; copies: 2 + 2
B3: IgG1-F1330 (antibody)
heavy: B1 heavy with G238R, F438V, K440R, D442E
light: not shown
notes: EU numbering; copies: 2 + 2
B4: IgG1-F1341 (antibody)
heavy: B1 heavy with S256T, E258T, F438T, D442E
light: not shown
notes: EU numbering; copies: 2 + 2
B5: IgG1-F1311 (antibody)
heavy: B1 heavy with E258T, V424A, S426A, H435D, F438V, K440Q, D442S
light: not shown
notes: EU numbering; copies: 2 + 2
B6: IgG1-F1365 (antibody)
heavy: B1 heavy with H435D, F438T, D442E
light: not shown
notes: EU numbering; copies: 2 + 2
B7: IgG1-F1349 (antibody)
heavy: B1 heavy with E258T, F438T, K440R, D442E
light: not shown
notes: EU numbering; copies: 2 + 2
B8: IgG1-F1328 (antibody)
heavy: B1 heavy with G238R, E258T, F438V, K440R, D442E
light: not shown
notes: EU numbering; copies: 2 + 2
B9: IgG1-F1334 (antibody)
heavy: B1 heavy with G238R, E258T, F438V
light: not shown
notes: EU numbering; copies: 2 + 2
B10: IgG1-F1321 (antibody)
heavy: B1 heavy with S256T, E258T, F438V, D442E
light: not shown
notes: EU numbering; copies: 2 + 2
B11: IgG1-F1359 (antibody)
heavy: B1 heavy with S256T, E258T, K440R, D442E
light: not shown
notes: EU numbering; copies: 2 + 2
B12: IgG1-F1351 (antibody)
heavy: B1 heavy with E258T, K440R, D442E
light: not shown
notes: EU numbering; copies: 2 + 2
B13: IgG1-F1309 (antibody)
heavy: B1 heavy with E258T, F438V, K440A, D442A
light: not shown
notes: EU numbering; copies: 2 + 2
B14: IgG1-F1323 (antibody)
heavy: B1 heavy with S256T, E258T, H435D, F438V, D442E
light: not shown
notes: EU numbering; copies: 2 + 2
B15: IgG1-F1320 (antibody)
heavy: B1 heavy with S256T, E258T, F438V, K440R
light: not shown
notes: EU numbering; copies: 2 + 2
B16: IgG1-F1342 (antibody)
heavy: B1 heavy with F438T, D442E
light: not shown
notes: EU numbering; copies: 2 + 2
B17: IgG1-F1308 (antibody)
heavy: B1 heavy with E258T, V424L, S426L, F438V, K440Q, D442S
light: not shown
notes: EU numbering; copies: 2 + 2
B18: IgG1-F1347 (antibody)
heavy: B1 heavy with G238R, F438V, D442E
light: not shown
notes: EU numbering; copies: 2 + 2
B19: IgG1-F1360 (antibody)
heavy: B1 heavy with S256T, E258T, H435D, F438T, D442E
light: not shown
notes: EU numbering; copies: 2 + 2
B20: IgG1-F1310 (antibody)
heavy: B1 heavy with E258T, F438V, K440L, D442L
light: not shown
notes: EU numbering; copies: 2 + 2
B21: IgG1-F1357 (antibody)
heavy: B1 heavy with S256T, E258T, F438T, K440R, D442E
light: not shown
notes: EU numbering; copies: 2 + 2
B22: IgG1-F1302 (antibody)
heavy: B1 heavy with H435D, F438Y
light: not shown
notes: EU numbering; copies: 2 + 2
B23: IgG1-F1354 (antibody)
heavy: B1 heavy with E258T, H435D, D442E
light: not shown
notes: EU numbering; copies: 2 + 2
B24: IgG1-F1331 (antibody)
heavy: B1 heavy with G238R, S256T, F438V, K440R, D442E
light: not shown
notes: EU numbering; copies: 2 + 2
B25: IgG1-F1306 (antibody)
heavy: B1 heavy with E258T, H435D, F438V, D442E
light: not shown
notes: EU numbering; copies: 2 + 2
B26: IgG1-F1329 (antibody)
heavy: B1 heavy with G238R, S256T, E258T, F438V, K440R, D442E
light: not shown
notes: EU numbering; copies: 2 + 2
B27: IgG1-F1345 (antibody)
heavy: B1 heavy with G238R, E258T, F438V, D442E
light: not shown
notes: EU numbering; copies: 2 + 2
B28: IgG1-F1326 (antibody)
heavy: QVQLQESGPGLVKPSETLSLTCAVSGHSISHDHAWSWVRQPPGEGLEWIGFISYSGITNYNPSLQGRVTISRDNSKNTLYLQMNSLRAEDTAVYYCARSLARTTAMDYWGEGTLVTVSSASTKGPSVFPLAPSSKSTSGGTAALGCLVKDYFPEPVTVSWNSGALTSGVHTFPAVLQSSGLYSLSSVVTVPSSSLGTQTYICNVNHKPSNTKVDKKVEPKSCDKTHTCPPCPAPEAAGGPSVFLFPPKPKDVLYISRTPEVTCVVVDVSHEDPEVKFNWYVDGVEVHNAKTKPREEQYNSTYRVVSVLQPLHADWLNGKEYKCKVSNKALPAPIEKTISKAKGQPREPQVYTLPPSRDELTKNQVSLTCLVKGFYPSDIAVEWESNGQPENNYKTTPPVLDSDGSFFLYSKLTVDKSRWQQGNVFSCSVMHEALHYHVTQKSLSLSP
light: not shown
notes: copies: 2 + 2
B29: IgG1-F1355 (antibody)
heavy: B1 heavy with E258T, H435D, K440R, D442E
light: not shown
notes: EU numbering; copies: 2 + 2
B30: IgG1-F1336 (antibody)
heavy: B1 heavy with G238R, F438V
light: not shown
notes: EU numbering; copies: 2 + 2
B31: IgG1-F1361 (antibody)
heavy: B1 heavy with S256T, E258T, H435D, F438T, K440R, D442E
light: not shown
notes: EU numbering; copies: 2 + 2
B32: IgG1-F1346 (antibody)
heavy: B1 heavy with G238R, S256T, E258T, F438V, D442E
light: not shown
notes: EU numbering; copies: 2 + 2
B33: IgG1-F1312 (antibody)
heavy: B1 heavy with E258T, V424L, S426L, H435D, F438V, K440Q, D442S
light: not shown
notes: EU numbering; copies: 2 + 2
B34: IgG1-F1337 (antibody)
heavy: B1 heavy with F438V, D442E
light: not shown
notes: EU numbering; copies: 2 + 2
B35: IgG1-F1327 (antibody)
heavy: B28 heavy with N299A
light: not shown
notes: copies: 2 + 2
B36: IgG1-F1350 (antibody)
heavy: B1 heavy with E258T, D442E
light: not shown
notes: EU numbering; copies: 2 + 2
B37: IgG1-F1313 (antibody)
heavy: B1 heavy with E258T, H435D, F438V, K440A, D442A
light: not shown
notes: EU numbering; copies: 2 + 2
B38: IgG1-F1363 (antibody)
heavy: B1 heavy with S256T, E258T, H435D, K440R, D442E
light: not shown
notes: EU numbering; copies: 2 + 2
B39: IgG1-F1305 (antibody)
heavy: B1 heavy with E258T, H435D, F438V, K440R
light: not shown
notes: EU numbering; copies: 2 + 2
B40: IgG1-F1358 (antibody)
heavy: B1 heavy with S256T, E258T, D442E
light: not shown
notes: EU numbering; copies: 2 + 2
B41: IgG1-F1353 (antibody)
heavy: B1 heavy with E258T, H435D, F438T, K440R, D442E
light: not shown
notes: EU numbering; copies: 2 + 2
B42: IgG1-F1303 (antibody)
heavy: B1 heavy with H435D, F438T
light: not shown
notes: EU numbering; copies: 2 + 2
B43: IgG1-F1314 (antibody)
heavy: B1 heavy with E258T, H435D, F438V, K440L, D442L
light: not shown
notes: EU numbering; copies: 2 + 2
B44: IgG1-F1322 (antibody)
heavy: B1 heavy with S256T, E258T, H435D, F438V, K440R
light: not shown
notes: EU numbering; copies: 2 + 2
B45: IgG1-F1319 (antibody)
heavy: B1 heavy with R237L, K241S, E258T, L330Y, F438Y, K440Q, D442S
light: not shown
notes: EU numbering; copies: 2 + 2
B46: IgG1-F1343 (antibody)
heavy: B1 heavy with S256T, F438T, D442E
light: not shown
notes: EU numbering; copies: 2 + 2
B47: IgG1-F1348 (antibody)
heavy: B1 heavy with G238R, S256T, F438V, D442E
light: not shown
notes: EU numbering; copies: 2 + 2
B48: IgG1-F1344 (antibody)
heavy: B1 heavy with E258T, F438T, D442E
light: not shown
notes: EU numbering; copies: 2 + 2
B49: IgG1-F1352 (antibody)
heavy: B1 heavy with E258T, H435D, F438T, D442E
light: not shown
notes: EU numbering; copies: 2 + 2
B50: IgG1-F1338 (antibody)
heavy: B1 heavy with H435D, F438V, D442E
light: not shown
notes: EU numbering; copies: 2 + 2
B51: IgG1-F1307 (antibody)
heavy: B1 heavy with E258T, V424A, S426A, F438V, K440Q, D442S
light: not shown
notes: EU numbering; copies: 2 + 2
B52: IgG1-F1304 (antibody)
heavy: B1 heavy with H435D
light: not shown
notes: EU numbering; copies: 2 + 2

These binders were tested against T1, soluble human FcRn complexed with β2-microglobulin (human, UniProt P61769 21-119, limits assumed) (assay: Biacore SPR, pH 7.0;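 further: test antibodies captured on a Protein L chip with human FcRn flowed over as analyte, KD obtained as the ratio of dissociation to association rate constants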).
T1 construct: also called hFcRn
T1 sequence (chain, as listed by the source limits assumed, chain 1 of 2): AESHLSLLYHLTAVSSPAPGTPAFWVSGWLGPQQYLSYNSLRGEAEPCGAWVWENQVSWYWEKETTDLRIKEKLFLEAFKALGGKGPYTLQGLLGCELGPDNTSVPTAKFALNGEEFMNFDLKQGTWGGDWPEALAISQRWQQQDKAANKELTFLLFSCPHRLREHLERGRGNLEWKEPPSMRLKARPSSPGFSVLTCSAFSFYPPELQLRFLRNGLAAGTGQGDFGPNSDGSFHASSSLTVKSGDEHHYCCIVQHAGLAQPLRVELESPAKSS
T1 sequence (P61769 21-119 limits assumed, chain 2 of 2): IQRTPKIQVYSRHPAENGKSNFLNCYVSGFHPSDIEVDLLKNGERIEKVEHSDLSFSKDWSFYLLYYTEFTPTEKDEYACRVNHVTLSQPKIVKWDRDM

Binder | Kd [nM]
B1 | 83
B2 | 141
B3 | 103
B4 | 322
B5 | 369
B6 | 314
B7 | 336
B8 | 152
B9 | 104
B10 | 103
B11 | 128
B12 | 162
B13 | 126
B14 | 149
B15 | 122
B16 | 251
B17 | 206
B18 | 71.4
B19 | 312
B20 | 228
B21 | 281
B22 | 215
B23 | 229
B24 | 77.5
B25 | 192
B26 | 129

Binder | Kd [nM]
B27 | 105
B28 | 10.9
B29 | 247
B30 | 71.8
B31 | 352
B32 | 85.9
B33 | 179
B34 | 74.1
B35 | 14.1
B36 | 118
B37 | 177
B38 | 190
B39 | 205
B40 | 90.7
B41 | 433
B42 | 210
B43 | 227
B44 | 160
B45 | 267
B46 | 201
B47 | 55.2
B48 | 396
B49 | 393
B50 | 104
B51 | 144
B52 | 124
